Patent US20240035010, “COMPOSITIONS COMPRISING A VARIANT POLYPEPTIDE AND USES THEREOF” (Arbor Biotechnologies, Inc., published 2024)
Changes are numbered by the printed parent chain.

How the values were obtained:
[1] = biological target: T1, variant nuclease K35G combination (P14R, D32R, I61R, E311R, K35G); test: cell_activity; PAM 5'-TTTG-3'; conditions: tags: pcDNA3.1 expression
T1 chain: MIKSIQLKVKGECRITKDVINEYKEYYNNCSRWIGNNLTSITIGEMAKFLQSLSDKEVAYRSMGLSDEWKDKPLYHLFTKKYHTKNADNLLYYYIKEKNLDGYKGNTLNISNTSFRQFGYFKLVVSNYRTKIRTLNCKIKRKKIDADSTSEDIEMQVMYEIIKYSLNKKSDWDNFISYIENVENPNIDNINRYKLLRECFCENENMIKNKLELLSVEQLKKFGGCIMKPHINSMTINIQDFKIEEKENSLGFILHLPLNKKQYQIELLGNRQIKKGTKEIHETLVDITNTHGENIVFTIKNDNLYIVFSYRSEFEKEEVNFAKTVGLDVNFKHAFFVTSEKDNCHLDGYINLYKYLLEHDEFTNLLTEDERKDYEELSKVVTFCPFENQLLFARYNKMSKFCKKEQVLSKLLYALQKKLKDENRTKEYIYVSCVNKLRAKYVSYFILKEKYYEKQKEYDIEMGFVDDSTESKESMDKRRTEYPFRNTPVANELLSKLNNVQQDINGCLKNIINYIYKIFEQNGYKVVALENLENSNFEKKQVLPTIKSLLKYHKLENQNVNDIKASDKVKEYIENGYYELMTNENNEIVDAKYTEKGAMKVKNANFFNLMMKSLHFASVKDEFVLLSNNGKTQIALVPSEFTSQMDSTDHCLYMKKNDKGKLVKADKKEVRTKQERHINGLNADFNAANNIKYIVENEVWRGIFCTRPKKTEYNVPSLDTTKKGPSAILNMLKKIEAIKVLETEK
Method in brief: (§1)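 HEK293T cells were lipofected with nuclease plasmid (pcDNA3.1 backbone) plus RNA guide plasmid, with guide omitted in negative controls. After ~72 h cells were lysed in QuickExtract and % indels were derived from NGS reads, averaged over two bioreplicates and two technical replicates.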

[2] = biological target: T2, variant nuclease E154G combination (P14R, D32R, I61R, E311R, E154G); test: cell_activity; PAM 5'-TTTG-3'; conditions: tags: pcDNA3.1 expression
T2 chain: T1 chain with G35K, E154G
Method in brief: as §1

B1: AAVS1 crRNA ; AAVS1 target (ssRNA ; dsDNA)
RNA: CUUGUUGUAUAUGUCCUUUUAUAGGUAUUAAACAACUGAGAAUGGUGCGUCCUAGG
DNA 1: TGAGAATGGTGCGTCCTAGG
DNA 2: CCTAGGACGCACCATTCTCA
With B1 the indel activity [1] was 5.66 fold of WT and the indel activity [2] was 5.79 fold of WT.
